Results taken from article PMC4502909.

Target: Pig heart citrate synthase (pig) (UniProt P00889)
Chain of UniProt P00889 (P00889 28-464): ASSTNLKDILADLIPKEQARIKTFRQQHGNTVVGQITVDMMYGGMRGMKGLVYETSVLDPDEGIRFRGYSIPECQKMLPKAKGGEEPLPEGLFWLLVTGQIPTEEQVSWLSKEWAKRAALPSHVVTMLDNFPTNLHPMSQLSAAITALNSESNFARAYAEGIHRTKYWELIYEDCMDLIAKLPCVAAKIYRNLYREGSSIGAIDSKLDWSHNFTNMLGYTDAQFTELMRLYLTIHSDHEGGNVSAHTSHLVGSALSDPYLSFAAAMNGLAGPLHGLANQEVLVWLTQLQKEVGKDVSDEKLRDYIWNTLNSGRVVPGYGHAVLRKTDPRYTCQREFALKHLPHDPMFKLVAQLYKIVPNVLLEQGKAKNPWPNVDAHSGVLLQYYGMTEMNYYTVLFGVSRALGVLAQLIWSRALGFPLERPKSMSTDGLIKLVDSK

Substance | reduction of the thermal aggregation of citrate synthase (0.8 µM, 44°C, absorbance/light scattering at 650 nm) by 5 µM rHtrA1 [%] | reduction of the thermal aggregation of citrate synthase (0.8 µM, 44°C, absorbance/light scattering at 650 nm) by 5 µM rHtrA2 [%]
rHtrA1 (HtrA1-ΔTM-Ser255Ala-His6), secreted soluble C-terminal region of Staphylococcus aureus strain COL HtrA1 (domain or fragment) | 30 | –
rHtrA2 (HtrA2-ΔTM-Ser619Ala-His6), secreted soluble C-terminal region of Staphylococcus aureus strain COL HtrA2 (domain or fragment) | – | 30
